Measured values as given in US20250270301A1 (GEN2 NEUROSCIENCE, published 2025).
Like-named read-outs stand apart in the source and are kept apart here.

How the values were obtained:
[1] = biological target: aggregated (oligomeric) P301S 2N4R tau, pHrodo-labelled (human, UniProt P10636 1-758, pHrodo Red maleimide label); test: cell-based or functional assay
[2] = biological target: monomeric P301S 2N4R tau, pHrodo-labelled (human, UniProt P10636 1-758, pHrodo Red maleimide label); test: cell-based or functional assay
Sequence of monomeric P301S 2N4R tau, pHrodo-labelled (P10636 other isoform, or with tags, fused parts or gaps P301S P301S): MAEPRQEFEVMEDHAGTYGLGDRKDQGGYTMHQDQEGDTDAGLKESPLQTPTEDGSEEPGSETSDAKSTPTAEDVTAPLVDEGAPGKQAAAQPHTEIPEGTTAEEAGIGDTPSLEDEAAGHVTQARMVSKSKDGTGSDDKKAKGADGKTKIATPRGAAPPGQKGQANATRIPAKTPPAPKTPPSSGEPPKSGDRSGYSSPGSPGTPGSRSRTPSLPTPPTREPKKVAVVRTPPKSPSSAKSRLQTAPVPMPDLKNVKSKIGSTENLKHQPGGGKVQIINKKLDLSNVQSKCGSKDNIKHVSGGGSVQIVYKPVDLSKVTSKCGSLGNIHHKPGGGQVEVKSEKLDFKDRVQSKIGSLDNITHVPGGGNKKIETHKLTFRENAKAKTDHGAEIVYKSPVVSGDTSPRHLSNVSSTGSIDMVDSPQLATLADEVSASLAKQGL

[3] = biological target: T1, full length recombinant human 2N4R tau (human, UniProt P10636 1-758); test: SPR MCK, IgG on Protein A, tau in flow
T1 construct: bought from rPeptide; pHrodo Red maleimide-labelled where it stands in uptake assays; also called tau1-441; full length tau
T1 sequence (P10636 other isoform, or with tags, fused parts or gaps limits assumed): as the sequence (P10636 other isoform, or with tags, fused parts or gaps P301S P301S) above, with S301P counted along it
Method: Slight variations in RMAX are considered likely to be due to differences in ligand capture and not reflective of significant variation in antibody binding characteristics.
22.2 Assessment of antibody binding to tau (Biacore MCK analysis): Binding of anti-tau hIgG1 to full length recombinant 2N4R tau (Rpeptide; SEQ ID NO: 2) was assessed using the Biacore T200 (GE Healthcare, Chicago, IL, USA) running Biacore T200 Evaluation Software V2.0.1. hIgG1 were immobilised on a Protein A capture sensor chip in running buffer (HBS-EP+ buffer containing 1 mg/mL BSA) at 25° C., captured to ˜50 RU at […]. For multi-cycle kinetics experiments, recombinant 2N4R tau was flowed at concentrations ranging from 0.39 nM to 12.5 nM in running buffer at 40 μL/min, with an association time of 60 s and a dissociation time of 200 s. Curves were compared to a reference cell that was mock immobilized (no antibody present).

Bovine serum albumin [4] = biological target: T2, Bovine serum albumin (bovine, UniProt P02769 25-607); test: ELISA on 1% BSA, HEK supernatant, anti-human IgG-HRP, n=1
T2 construct: also called BSA
T2 sequence (P02769 25-607 limits assumed): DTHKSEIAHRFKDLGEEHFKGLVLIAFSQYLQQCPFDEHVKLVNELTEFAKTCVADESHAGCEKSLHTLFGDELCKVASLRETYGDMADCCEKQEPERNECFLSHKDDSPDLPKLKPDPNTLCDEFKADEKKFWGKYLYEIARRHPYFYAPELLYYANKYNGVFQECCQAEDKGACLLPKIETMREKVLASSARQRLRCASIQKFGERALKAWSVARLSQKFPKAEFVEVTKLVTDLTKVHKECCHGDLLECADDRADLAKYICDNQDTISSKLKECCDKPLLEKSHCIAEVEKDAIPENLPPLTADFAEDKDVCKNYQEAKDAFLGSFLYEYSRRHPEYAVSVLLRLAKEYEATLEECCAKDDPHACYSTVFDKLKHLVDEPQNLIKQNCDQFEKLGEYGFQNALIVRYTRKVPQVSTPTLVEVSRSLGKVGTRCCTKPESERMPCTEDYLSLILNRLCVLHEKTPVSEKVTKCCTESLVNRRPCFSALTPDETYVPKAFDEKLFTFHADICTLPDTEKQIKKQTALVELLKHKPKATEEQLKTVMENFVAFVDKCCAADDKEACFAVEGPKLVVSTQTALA
Summary of the method: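 Wells coated with antigen, blocked 1 h RT in 5% milk/TBS; HEK293 transient-transfection supernatants applied at 1:100 in 1% BSA/TBS for 1 h RT. Bound hIgG1 detected with anti-human IgG-HRP (1:2000), TMB 15 min, acid stop, OD450; single replicate.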

[5] = biological target: T1, full length recombinant human 2N4R tau; test: SPR SCK, IgG on Protein A, tau in flow
Summary of the method: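 Antibodies were captured to ~50 RU on a Protein A chip in HBS-EP+ with 1 mg/mL BSA at 25 °C. Tau was injected by single-cycle kinetics at 1.25–10 nM (2-fold), with 60 s association and 200 s dissociation. Signals were referenced to a mock-immobilized cell.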

[6] = biological target: T1, full length recombinant human 2N4R tau; test: SPR SCK, IgG on Protein A, tau in flow; remark: listed apart in the source
Bovine serum albumin [7] = biological target: T2, Bovine serum albumin; test: ELISA on 1% BSA, HEK supernatant, anti-human IgG-HRP, n=1; remark: listed apart in the source

Sequence of aggregated (oligomeric) P301S 2N4R tau, pHrodo-labelled (P10636 other isoform, or with tags, fused parts or gaps P301S P301S): as the sequence (P10636 other isoform, or with tags, fused parts or gaps P301S P301S) above

Binder	Fold change (KD, to pVH/pVL) [6]	Kd [6]	koff [6]	kon [6]	binding result (Bovine serum albumin [7])	further results
#44 VH4VK3 humanised hIgG1 (antibody, V domains shown, also called VH4Vκ3; Clone VH4VK3 (D)) VH: QVQLQESGPGLVKPSETLSLTCTVSGIDLSSYAMAWVRQAPGKGLEWIGCIDRRGGTFYASWVKGRFTISKDTSKTTVDLQMTSLTAEDTATYFCARDSGAFDPWGQGTLVTVSS VL: DIQMTQSPSSLSASVGDRVTITCQASQSVYDNYLAWYQQKPGQPPKLLIHAASNLASGVPSRFKGSGSGTEFTLTISSLQPDDFATYYCLGEFSCTTTDCNVFGGGTKVEIK						increase of aggregated tau uptake into human iPSC-derived microglia [1]: 90.5%; inhibition of aggregated tau uptake into human iPSC-derived astrocytes [1]: 49.9%; inhibition of aggregated tau uptake into human iPSC-derived neurons [1]: 36.3%; increase of monomeric tau uptake into human iPSC-derived microglia [2]: 60.2%; inhibition of monomeric tau uptake into human iPSC-derived astrocytes [2]: 87.5%; inhibition of monomeric tau uptake into human iPSC-derived neurons [2]: 41.8%; Kd [3]: 5.14 nM; Relative KD (to VH0VK0) [3]: 1.58; koff [3]: 0.0403 s⁻¹; kon [3]: 7.83e+06 M⁻¹ s⁻¹; binding result (Bovine serum albumin [4]): no binding (tested: supernatant 1:100); Kd [5]: 6.68 nM; Relative KD (to VH0VK0) [5]: 1.74; koff [5]: 0.034 s⁻¹; kon [5]: 5.09e+06 M⁻¹ s⁻¹
#44_VH4VK4_H09/pVL (antibody, V domains shown, also called Clone VH4_H09; #44_VH4_H09) VH: QVQLQESGPGLVKPSETLSLTCTVSGIDLSSYAMAWVRQAPGKGLEWIGAIDARGNTFYASWVKGRFTISKDTSKTTVDLQMTSLTAEDTATYFCARDSGAFDPWGQGTLVTVSS VL: DIQMTQSPSSLSASVGDRVTITCQASQSVYDNYLAWYQQKPGQPPKLLIHAASNLASGVPSRFSGSGSGTEFTLTISSLQPDDFATYYCLGEFSCTTTDCNVFGGGTKVEIK	0.67	9.85 nM	0.032 s⁻¹	3.25e+06 M⁻¹ s⁻¹	no binding (tested: 30 ng/ml (legend 1:100))	
#44_VH4VK4_H03/pVL (antibody, V domains shown, also called Clone VH4_H03; #44_VH4_H03) VH: QVQLQESGPGLVKPSETLSLTCTVSGIDLSSYAMAWVRQAPGKGLEWIGCIDRRGGTFYASWVKGRFTISKDTSKTTVDLQMTSLTAEDTATYFCARDAGAFDVWGQGTLVTVSS VL: DIQMTQSPSSLSASVGDRVTITCQASQSVYDNYLAWYQQKPGQPPKLLIHAASNLASGVPSRFSGSGSGTEFTLTISSLQPDDFATYYCLGEFSCTTTDCNVFGGGTKVEIK	1.03	6.4 nM	0.0151 s⁻¹	2.36e+06 M⁻¹ s⁻¹	no binding (tested: 30 ng/ml (legend 1:100))	
#44_VH4VK4_H12/pVL (antibody, V domains shown, also called Clone VH4_H12; #44_VH4_H12) VH: QVQLQESGPGLVKPSETLSLTCTVSGIDLSSYAMAWVRQAPGKGLEWIGAIDARGSTFYASWVKGRFTISKDTSKTTVDLQMTSLTAEDTATYFCARDSGAFDPWGQGTLVTVSS VL: DIQMTQSPSSLSASVGDRVTITCQASQSVYDNYLAWYQQKPGQPPKLLIHAASNLASGVPSRFSGSGSGTEFTLTISSLQPDDFATYYCLGEFSCTTTDCNVFGGGTKVEIK	1.09	6.04 nM	0.251 s⁻¹	4.16e+07 M⁻¹ s⁻¹	no binding (tested: 30 ng/ml (legend 1:100))	
#44_VH4VK4_H07/pVL (antibody, V domains shown, also called Clone VH4_H07; #44_VH4_H07) VH: QVQLQESGPGLVKPSETLSLTCTVSGIDLSSYAMAWVRQAPGKGLEWIGAIDAAGNTFYASWVKGRFTISKDTSKTTVDLQMTSLTAEDTATYFCARDSGAFDPWGQGTLVTVSS VL: DIQMTQSPSSLSASVGDRVTITCQASQSVYDNYLAWYQQKPGQPPKLLIHAASNLASGVPSRFSGSGSGTEFTLTISSLQPDDFATYYCLGEFSCTTTDCNVFGGGTKVEIK	0.9	7.35 nM			no binding (tested: 30 ng/ml (legend 1:100))	
#44_VH4VK4_H08/pVL (antibody, V domains shown, also called Clone VH4_H08; #44_VH4_H08) VH: QVQLQESGPGLVKPSETLSLTCTVSGIDLSSYAMAWVRQAPGKGLEWIGAIDAAGRTFYASWVKGRFTISKDTSKTTVDLQMTSLTAEDTATYFCARDSGAFDPWGQGTLVTVSS VL: DIQMTQSPSSLSASVGDRVTITCQASQSVYDNYLAWYQQKPGQPPKLLIHAASNLASGVPSRFSGSGSGTEFTLTISSLQPDDFATYYCLGEFSCTTTDCNVFGGGTKVEIK	0.26	25.7 nM	0.011 s⁻¹	426000 M⁻¹ s⁻¹	no binding (tested: 30 ng/ml (legend 1:100))	
#44_VH4VK4_H10/pVL (antibody, V domains shown, also called Clone VH4_H10; #44_VH4_H10) VH: QVQLQESGPGLVKPSETLSLTCTVSGIDLSSYAMAWVRQAPGKGLEWIGAIDARGRTFYASWVKGRFTISKDTSKTTVDLQMTSLTAEDTATYFCARDSGAFDPWGQGTLVTVSS VL: DIQMTQSPSSLSASVGDRVTITCQASQSVYDNYLAWYQQKPGQPPKLLIHAASNLASGVPSRFSGSGSGTEFTLTISSLQPDDFATYYCLGEFSCTTTDCNVFGGGTKVEIK	0.66	9.95 nM			no binding (tested: 30 ng/ml (legend 1:100))	
#44_VH4VK4_H05/pVL (antibody, V domains shown, also called Clone VH4_H05; #44_VH4_H05) VH: QVQLQESGPGLVKPSETLSLTCTVSGIDLSSYAMAWVRQAPGKGLEWIGCIDRRGGTFYASWVKGRFTISKDTSKTTVDLQMTSLTAEDTATYFCARDAGHFDYWGQGTLVTVSS VL: DIQMTQSPSSLSASVGDRVTITCQASQSVYDNYLAWYQQKPGQPPKLLIHAASNLASGVPSRFSGSGSGTEFTLTISSLQPDDFATYYCLGEFSCTTTDCNVFGGGTKVEIK	1.36	4.84 nM	0.0203 s⁻¹	4.18e+06 M⁻¹ s⁻¹	no binding (tested: 30 ng/ml (legend 1:100))	
#44_VH4VK4_H13/pVL (antibody, V domains shown, also called Clone VH4_H13; #44_VH4_H13) VH: QVQLQESGPGLVKPSETLSLTCTVSGIDLSSYAMAWVRQAPGKGLEWIGAIDSAGNTFYASWVKGRFTISKDTSKTTVDLQMTSLTAEDTATYFCARDSGAFDPWGQGTLVTVSS VL: DIQMTQSPSSLSASVGDRVTITCQASQSVYDNYLAWYQQKPGQPPKLLIHAASNLASGVPSRFSGSGSGTEFTLTISSLQPDDFATYYCLGEFSCTTTDCNVFGGGTKVEIK	0.38	17.3 nM	0.0148 s⁻¹	855000 M⁻¹ s⁻¹	no binding (tested: 30 ng/ml (legend 1:100))	
#44_VH4VK4_H14/pVL (antibody, V domains shown, also called Clone VH4_H14; #44_VH4_H14) VH: QVQLQESGPGLVKPSETLSLTCTVSGIDLSSYAMAWVRQAPGKGLEWIGAIDSAGSTFYASWVKGRSTISKDTSKTTVDLQMTSLTAEDTATYFCARDSGAFDPWGQGTLVTVSS VL: DIQMTQSPSSLSASVGDRVTITCQASQSVYDNYLAWYQQKPGQPPKLLIHAASNLASGVPSRFSGSGSGTEFTLTISSLQPDDFATYYCLGEFSCTTTDCNVFGGGTKVEIK	1.03	6.37 nM			no binding (tested: 30 ng/ml (legend 1:100))	
#44_VH4VK4_H11/pVL (antibody, V domains shown, also called Clone VH4_H11; #44_VH4_H11) VH: QVQLQESGPGLVKPSETLSLTCTVSGIDLSSYAMAWVRQAPGKGLEWIGAIDARGATFYASWVKGRFTISKDTSKTTVDLQMTSLTAEDTATYFCARDSGAFDPWGQGTLVTVSS VL: DIQMTQSPSSLSASVGDRVTITCQASQSVYDNYLAWYQQKPGQPPKLLIHAASNLASGVPSRFSGSGSGTEFTLTISSLQPDDFATYYCLGEFSCTTTDCNVFGGGTKVEIK	1.16	5.65 nM			no binding (tested: 30 ng/ml (legend 1:100))	
